T1: CD123 (Homo sapiens (Human), UniProt P26951 19-305, limits assumed)
T1 construct: also called CD123-Signal
T1 sequence: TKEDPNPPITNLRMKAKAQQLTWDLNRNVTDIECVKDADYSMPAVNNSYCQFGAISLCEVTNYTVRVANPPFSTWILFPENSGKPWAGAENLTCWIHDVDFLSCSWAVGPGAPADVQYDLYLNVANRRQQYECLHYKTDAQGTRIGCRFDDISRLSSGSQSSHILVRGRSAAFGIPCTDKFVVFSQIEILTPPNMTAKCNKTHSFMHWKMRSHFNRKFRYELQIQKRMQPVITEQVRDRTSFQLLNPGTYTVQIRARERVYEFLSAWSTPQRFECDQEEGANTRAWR

B1: D domain SEQ ID NO: 703 (designed binder)
chain: MGSWYEFDARLDAIEERLYALGGSEAELAAFEFEIAGFEEALQWYKGKGNPEVEALLKEAEAITDELYAYRHN
B2: D domain SEQ ID NO: 704 (designed binder)
chain: MGSWDEFSERLDAIWGRLEALGGSEAELATFEFHIAEFEHELQYYKGKGNPEVEALQGEAAAIINELYAYRHN
B3: D domain SEQ ID NO: 705 (designed binder)
chain: MGSWDEFWDRLDAIEDRLFALGGSEAELADFERVIAWFENDLQEYKGKGNPEVEALDNEADAIRIELHAYRHN
B4: D domain SEQ ID NO: 706 (designed binder)
chain: MGSWDEFDDRLEAIVDRLFALGGSEAELAMFEFEIAQFEHQLQYYKGKGNPEVEALRDEADAIWIELDAYRHN
B5: D domain SEQ ID NO: 707 (designed binder)
chain: MGSWEEFTIRLGAIYWRLFALGGSEAELANFEWFIAEFEYELQPYKGKGNPEVEALVIEANAIDGELQAYRHN
B6: D domain SEQ ID NO: 708 (designed binder)
chain: MGSWFEFEWRLDAIENRLNALGGSEAELAWFEYHIAAFEDSLQHYKGKGNPEVEALEWEAHAIQSELQAYRHN
B7: D domain SEQ ID NO: 745 (designed binder)
chain: MGSWIEFEDRLYAIEDRLWALGGSEAELAAFEKEIAAFESELQAYKGKGNPEVEFLRYEAAEIRYWLQAYRHN
B8: D domain SEQ ID NO: 709 (designed binder)
chain: MGSWYEFDDRLEAIWDRLGALGGSEAELAAFEKEIAAFESELQAYKGKGNPEVEWLRETAADIRAELQAYRHN
B9: D domain SEQ ID NO: 711 (designed binder)
chain: MGSWIEFEVRLDAIWDRLFALGGSEAELAAFEKEIAAFESELQAYKGKGNPEVEYLRDEAADIRQSLQAYRHN
B10: D domain SEQ ID NO: 712 (designed binder)
chain: MGSWTEFDRRLDAIWDRLFALGGSEAELAAFEKEIAAFESELQAYKGKGNPEVEWLREEAADIRDYLQAYRHN
B11: D domain SEQ ID NO: 713 (designed binder)
chain: MGSWTEFDMRLDAIWDRLFALGGSEAELAAFEKEIAAFESELQAYKGKGNPEVEELREEAATIRGVLQAYRHN
B12: D domain SEQ ID NO: 714 (designed binder)
chain: MGSWEEFHDRLMAIETRLWALGGSEAELAAFEKEIAAFESELQAYKGKGNPEVEWLRYEAADIRDYLQAYRHN
B13: D domain SEQ ID NO: 715 (designed binder)
chain: MGSWVEFRDRLDAIETRLWALGGSEAELAAFEKEIAAFESELQAYKGKGNPEVEWLRYEAAEIRMVLQAYRHN
B14: D domain SEQ ID NO: 716 (designed binder)
chain: MGSWMEFIDRLDAIEHRLWALGGSEAELAAFEKEIAAFESELQAYKGKGNPEVEFLREEAAEIRMYLQAYRHN
B15: D domain SEQ ID NO: 717 (designed binder)
chain: MGSWTEFVWRLDAIEWRLEALGGSEAELAAFEKEIAAFESELQAYKGKGNPEVEFLREEAAEIRDWLQAYRHN
B16: D domain SEQ ID NO: 718 (designed binder)
chain: MGSWVEFYDRLYAIEVRLLALGGSEAELAAFEKEIAAFESELQAYKGKGNPEVEFLRQEAAEIRDWLQAYRHN
B17: D domain SEQ ID NO: 719 (designed binder)
chain: MGSWYEFYDRLDAIEWRLWALGGSEAELAAFEKEIAAFESELQAYKGKGNPEVEWLRDEAAQIRDFLQAYRHN
B18: D domain SEQ ID NO: 720 (designed binder)
chain: MGSWVEFYDRLDAIEHRLDALGGSEAELAAFEKEIAAFESELQAYKGKGNPEVEWLRDEAAFIRDMLQAYRHN
B19: D domain SEQ ID NO: 721 (designed binder)
chain: MGSWFEFVDRLTAIQVRLWALGGSEAELAAFEKEIAAFESELQAYKGKGNPEVEYLREEAALIRYSLQAYRHN
B20: D domain SEQ ID NO: 722 (designed binder)
chain: MGSWFEFLDRLDAIEERLWALGGSEAELAAFEKEIAAFESELQAYKGKGNPEVEWLREEAAVIRDSLQAYRHN
B21: D domain SEQ ID NO: 723 (designed binder)
chain: MGSWYEFMVRLDAIEERLFALGGSEAELAAFEKEIAAFESELQAYKGKGNPEVEFLREEAASIRYHLQAYRHN
B22: D domain SEQ ID NO: 726 (designed binder)
chain: MGSWVEFEYRLDAITERLLALGGSEAELAAFEKEIAAFESELQAYKGKGNPEVEILREEAAFIRQWLQAYRHN
B23: D domain SEQ ID NO: 727 (designed binder)
chain: MGSWWEFLDRLDAIEMRLFALGGSEAELAAFEKEIAAFESELQAYKGKGNPEVEYLREEAALIRNMLQAYRHN
B24: D domain SEQ ID NO: 728 (designed binder)
chain: MGSWWEFEDRLDAIEYRLFALGGSEAELAAFEKEIAAFESELQAYKGKGNPEVEFLREEAAFIRIFLQAYRHN
B25: D domain SEQ ID NO: 729 (designed binder)
chain: MGSWWEFESRLDAIFMRLTALGGSEAELAAFEKEIAAFESELQAYKGKGNPEVEDLREDAAFIREFLQAYRHN
B26: D domain SEQ ID NO: 738 (designed binder)
chain: MGSWVEFWDRLWAIEDRLWALGGSEAELAAFEKEIAAFESELQAYKGKGNPEVEHLRHYAADIRVWLQAYRHN
B27: D domain SEQ ID NO: 739 (designed binder)
chain: MGSWYEFADRLWAIEDRLWALGGSEAELAAFEKEIAAFESELQAYKGKGNPEVEFLRYYAADIRWVLQAYRHN
B28: D domain SEQ ID NO: 740 (designed binder)
chain: MGSWYEFEERLYAIEDRLYALGGSEAELAAFEKEIAAFESELQAYKGKGNPEVEFLRQEAADIRLMLQAYRHN
B29: D domain SEQ ID NO: 741 (designed binder)
chain: MGSWTEFEWRLYAIEDRLMALGGSEAELAAFEKEIAAFESELQAYKGKGNPEVEFLRDEAADIRQYLQAYRHN
B30: D domain SEQ ID NO: 742 (designed binder)
chain: MGSWIEFESRLWAIEDRLLALGGSEAELAAFEKEIAAFESELQAYKGKGNPEVEFLRLEAADIREDLQAYRHN
B31: D domain SEQ ID NO: 743 (designed binder)
chain: MGSWFEFEDRLDAIWDRLWALGGSEAELAAFEKEIAAFESELQAYKGKGNPEVEFLRMDAAMIRYILQAYRHN
B32: D domain SEQ ID NO: 744 (designed binder)
chain: MGSWEEFEDRLWAIEDRLWALGGSEAELAAFEKEIAAFESELQAYKGKGNPEVEILRYDAAYIREILQAYRHN
B33: D domain SEQ ID NO: 746 (designed binder)
chain: MGSWYEFWDRLEAIEDRLWALGGSEAELAAFEKEIAAFESELQAYKGKGNPEVEFLRYSAAEIRYQLQAYRHN
B34: D domain SEQ ID NO: 747 (designed binder)
chain: MGSWVEFESRLAAIEHRLWALGGSEAELAAFEKEIAAFESELQAYKGKGNPEVEELREYAAEIRDWLQAYRHN
B35: D domain SEQ ID NO: 748 (designed binder)
chain: MGSWWEFEHRLFAIEDRLWALGGSEAELAAFEKEIAAFESELQAYKGKGNPEVEFLRDYAAEIRDYLQAYRHN
B36: D domain SEQ ID NO: 749 (designed binder)
chain: MGSWYEFDSRLMAIEDRLWALGGSEAELAAFEKEIAAFESELQAYKGKGNPEVEYLRQEAAEIRMILQAYRHN
B37: D domain SEQ ID NO: 750 (designed binder)
chain: MGSWYEFEWRLMAIEDRLWALGGSEAELAAFEKEIAAFESELQAYKGKGNPEVEYLRHEAAEIRDVLQAYRHN
B38: D domain SEQ ID NO: 751 (designed binder)
chain: MGSWYEFYNRLDAIEDRLWALGGSEAELAAFEKEIAAFESELQAYKGKGNPEVEYLRQEAADIRGQLQAYRHN
B39: D domain SEQ ID NO: 752 (designed binder)
chain: MGSWWEFHDRLEAIEDRLWALGGSEAELAAFEKEIAAFESELQAYKGKGNPEVEYLRIEAADIRRQLQAYRHN
B40: D domain SEQ ID NO: 753 (designed binder)
chain: MGSWYEFWDRLEAIEERLWALGGSEAELAAFEKEIAAFESELQAYKGKGNPEVEYLRLEAADIRRILQAYRHN
B41: D domain SEQ ID NO: 754 (designed binder)
chain: MGSWYEFEERLWAIEERLYALGGSEAELAAFEKEIAAFESELQAYKGKGNPEVEYLRYEAAWIRDFLQAYRHN
B42: D domain SEQ ID NO: 755 (designed binder)
chain: MGSWYEFENRLEAIEERLWALGGSEAELAAFEKEIAAFESELQAYKGKGNPEVEMLREEAAFIRDWLQAYRHN
B43: D domain SEQ ID NO: 756 (designed binder)
chain: MGSWYEFEYRLEAIEDRLWALGGSEAELAAFEKEIAAFESELQAYKGKGNPEVEYLREEAAWIRVWLQAYRHN

Biological target: T1, CD123
Experiment: ELISA, format not described
Design: unit not given here

Binder	ELISA_avg
B1	8.9
B2	3.2
B3	3.9
B4	5.6
B5	3.3
B6	3.3
B7	4
B8	3.3
B9	4.2
B10	9.2
B11	3.1
B12	4.3
B13	4.2
B14	4.3
B15	4.2
B16	5.8
B17	6.2
B18	3.4
B19	5.1
B20	12.2
B21	4.1
B22	3.9

Binder	ELISA_avg
B23	9
B24	4.9
B25	3.7
B26	4.5
B27	4
B28	11.5
B29	4.2
B30	8.7
B31	5.1
B32	4.1
B33	4.2
B34	3.7
B35	7.6
B36	3.2
B37	3.4
B38	11.3
B39	6.4
B40	4.6
B41	5.4
B42	6.1
B43	6.2
